T1: EsCas13d, nuclease-dead (Eubacterium siraeum, UniProt B0MS50, R295A;H300A;R849A;H854A)
T1 sequence: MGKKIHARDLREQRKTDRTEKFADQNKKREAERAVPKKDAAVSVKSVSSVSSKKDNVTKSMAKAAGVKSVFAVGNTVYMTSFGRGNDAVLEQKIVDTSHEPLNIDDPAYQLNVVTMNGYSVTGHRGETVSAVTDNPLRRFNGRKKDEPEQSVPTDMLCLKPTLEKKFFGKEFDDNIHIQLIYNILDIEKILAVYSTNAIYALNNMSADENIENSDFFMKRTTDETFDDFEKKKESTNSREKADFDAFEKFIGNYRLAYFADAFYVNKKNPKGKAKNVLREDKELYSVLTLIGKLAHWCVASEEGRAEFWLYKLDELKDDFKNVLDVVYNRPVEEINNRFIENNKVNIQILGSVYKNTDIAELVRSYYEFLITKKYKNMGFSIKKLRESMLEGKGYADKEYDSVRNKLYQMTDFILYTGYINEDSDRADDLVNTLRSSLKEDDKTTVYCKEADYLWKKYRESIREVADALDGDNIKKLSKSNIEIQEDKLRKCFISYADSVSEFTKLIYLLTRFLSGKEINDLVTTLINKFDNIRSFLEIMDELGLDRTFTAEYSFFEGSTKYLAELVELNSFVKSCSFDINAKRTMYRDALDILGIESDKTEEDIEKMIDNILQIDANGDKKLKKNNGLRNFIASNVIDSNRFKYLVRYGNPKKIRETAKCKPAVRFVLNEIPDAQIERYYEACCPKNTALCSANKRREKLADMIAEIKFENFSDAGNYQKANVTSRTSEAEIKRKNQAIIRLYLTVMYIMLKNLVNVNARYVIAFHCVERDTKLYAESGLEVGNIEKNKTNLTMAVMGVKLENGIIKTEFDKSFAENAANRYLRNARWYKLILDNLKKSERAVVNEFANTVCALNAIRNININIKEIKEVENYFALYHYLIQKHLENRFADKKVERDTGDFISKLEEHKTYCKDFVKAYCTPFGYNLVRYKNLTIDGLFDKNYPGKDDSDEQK

B1: target 1 insA 3' of 10,insA 3' of 8 (mixed)
RNA 1: CACCCGUGCAAAAAUGCAGGGGUCUAAAACUGAGCGGAUAACCUCUCUAUGG
RNA 2: GGGAAUGGAUCCACAUCUACGAAUUCGUACCAUAGAGAGGUUAAUACCGCUCACCGAGAUCGGAAGAGCACACGU
B2: target 1 C4G,U11A (mixed)
RNA 1: CACCCGUGCAAAAAUGCAGGGGUCUAAAACUGAGCGGAUAACCUCUCUAUGG
RNA 2: GGGAAUGGAUCCACAUCUACGAAUUCGUACCAUAGAGAGGAUAUCCGGUCACCGAGAUCGGAAGAGCACACGU
B3: target 1 insC 3' of 22,insC 3' of 19 (mixed)
RNA 1: CACCCGUGCAAAAAUGCAGGGGUCUAAAACUGAGCGGAUAACCUCUCUAUGG
RNA 2: GGGAAUGGAUCCACAUCUACGAAUUCGUACCCAUCAGAGAGGUUAUCCGCUCACCGAGAUCGGAAGAGCACACGU
B4: target 1 insU 3' of 18,insG 3' of 6 (mixed)
RNA 1: CACCCGUGCAAAAAUGCAGGGGUCUAAAACUGAGCGGAUAACCUCUCUAUGG
RNA 2: GGGAAUGGAUCCACAUCUACGAAUUCGUACCAUAUGAGAGGUUAUCCGGCUCACCGAGAUCGGAAGAGCACACGU
B5: target 1 G15C (mixed)
RNA 1: CACCCGUGCAAAAAUGCAGGGGUCUAAAACUGAGCGGAUAACCUCUCUAUGG
RNA 2: GGGAAUGGAUCCACAUCUACGAAUUCGUACCAUAGACAGGUUAUCCGCUCACCGAGAUCGGAAGAGCACACGU
B6: target 1 insU 3' of 20,insA 3' of 11 (mixed)
RNA 1: CACCCGUGCAAAAAUGCAGGGGUCUAAAACUGAGCGGAUAACCUCUCUAUGG
RNA 2: GGGAAUGGAUCCACAUCUACGAAUUCGUACCAUUAGAGAGGUAUAUCCGCUCACCGAGAUCGGAAGAGCACACGU
B7: target 1 A16G,C22U (mixed)
RNA 1: CACCCGUGCAAAAAUGCAGGGGUCUAAAACUGAGCGGAUAACCUCUCUAUGG
RNA 2: GGGAAUGGAUCCACAUCUACGAAUUCGUAUCAUAGGGAGGUUAUCCGCUCACCGAGAUCGGAAGAGCACACGU
B8: target 1 G15U (mixed)
RNA 1: CACCCGUGCAAAAAUGCAGGGGUCUAAAACUGAGCGGAUAACCUCUCUAUGG
RNA 2: GGGAAUGGAUCCACAUCUACGAAUUCGUACCAUAGAUAGGUUAUCCGCUCACCGAGAUCGGAAGAGCACACGU
B9: target 1 C4A,U19A (mixed)
RNA 1: CACCCGUGCAAAAAUGCAGGGGUCUAAAACUGAGCGGAUAACCUCUCUAUGG
RNA 2: GGGAAUGGAUCCACAUCUACGAAUUCGUACCAAAGAGAGGUUAUCCGAUCACCGAGAUCGGAAGAGCACACGU
B10: target 1 A1G,G15U (mixed)
RNA 1: CACCCGUGCAAAAAUGCAGGGGUCUAAAACUGAGCGGAUAACCUCUCUAUGG
RNA 2: GGGAAUGGAUCCACAUCUACGAAUUCGUACCAUAGAUAGGUUAUCCGCUCGCCGAGAUCGGAAGAGCACACGU
B11: target 1 insA 3' of 4,insG 3' of 1 (mixed)
RNA 1: CACCCGUGCAAAAAUGCAGGGGUCUAAAACUGAGCGGAUAACCUCUCUAUGG
RNA 2: GGGAAUGGAUCCACAUCUACGAAUUCGUACCAUAGAGAGGUUAUCCGCAUCAGCCGAGAUCGGAAGAGCACACGU
B12: target 1 insG 3' of 18,insG 3' of 11 (mixed)
RNA 1: CACCCGUGCAAAAAUGCAGGGGUCUAAAACUGAGCGGAUAACCUCUCUAUGG
RNA 2: GGGAAUGGAUCCACAUCUACGAAUUCGUACCAUAGGAGAGGUGUAUCCGCUCACCGAGAUCGGAAGAGCACACGU
B13: target 1 insA 3' of 17,insA 3' of 13 (mixed)
RNA 1: CACCCGUGCAAAAAUGCAGGGGUCUAAAACUGAGCGGAUAACCUCUCUAUGG
RNA 2: GGGAAUGGAUCCACAUCUACGAAUUCGUACCAUAGAAGAGAGUUAUCCGCUCACCGAGAUCGGAAGAGCACACGU
B14: target 1 insC 3' of 11,insA 3' of 3 (mixed)
RNA 1: CACCCGUGCAAAAAUGCAGGGGUCUAAAACUGAGCGGAUAACCUCUCUAUGG
RNA 2: GGGAAUGGAUCCACAUCUACGAAUUCGUACCAUAGAGAGGUCUAUCCGCUACACCGAGAUCGGAAGAGCACACGU
B15: target 1 insU 3' of 12,insU 3' of 7 (mixed)
RNA 1: CACCCGUGCAAAAAUGCAGGGGUCUAAAACUGAGCGGAUAACCUCUCUAUGG
RNA 2: GGGAAUGGAUCCACAUCUACGAAUUCGUACCAUAGAGAGGUUUAUCUCGCUCACCGAGAUCGGAAGAGCACACGU
B16: target 1 A9G,A14U (mixed)
RNA 1: CACCCGUGCAAAAAUGCAGGGGUCUAAAACUGAGCGGAUAACCUCUCUAUGG
RNA 2: GGGAAUGGAUCCACAUCUACGAAUUCGUACCAUAGAGUGGUUGUCCGCUCACCGAGAUCGGAAGAGCACACGU
B17: target 1 del7,del18 (mixed)
RNA 1: CACCCGUGCAAAAAUGCAGGGGUCUAAAACUGAGCGGAUAACCUCUCUAUGG
RNA 2: GGGAAUGGAUCCACAUCUACGAAUUCGUACCAUGAGAGGUUAUCGCUCACCGAGAUCGGAAGAGCACACGU
B18: target 1 A18U,U19A (mixed)
RNA 1: CACCCGUGCAAAAAUGCAGGGGUCUAAAACUGAGCGGAUAACCUCUCUAUGG
RNA 2: GGGAAUGGAUCCACAUCUACGAAUUCGUACCAAUGAGAGGUUAUCCGCUCACCGAGAUCGGAAGAGCACACGU
B19: target 1 insC 3' of 13,insU 3' of 4 (mixed)
RNA 1: CACCCGUGCAAAAAUGCAGGGGUCUAAAACUGAGCGGAUAACCUCUCUAUGG
RNA 2: GGGAAUGGAUCCACAUCUACGAAUUCGUACCAUAGAGAGCGUUAUCCGCUUCACCGAGAUCGGAAGAGCACACGU
B20: target 1 A9G,G12C (mixed)
RNA 1: CACCCGUGCAAAAAUGCAGGGGUCUAAAACUGAGCGGAUAACCUCUCUAUGG
RNA 2: GGGAAUGGAUCCACAUCUACGAAUUCGUACCAUAGAGAGCUUGUCCGCUCACCGAGAUCGGAAGAGCACACGU
B21: target 1 del4,del15 (mixed)
RNA 1: CACCCGUGCAAAAAUGCAGGGGUCUAAAACUGAGCGGAUAACCUCUCUAUGG
RNA 2: GGGAAUGGAUCCACAUCUACGAAUUCGUACCAUAGAAGGUUAUCCGUCACCGAGAUCGGAAGAGCACACGU
B22: target 1 insG 3' of 19,insC 3' of 13 (mixed)
RNA 1: CACCCGUGCAAAAAUGCAGGGGUCUAAAACUGAGCGGAUAACCUCUCUAUGG
RNA 2: GGGAAUGGAUCCACAUCUACGAAUUCGUACCAUGAGAGAGCGUUAUCCGCUCACCGAGAUCGGAAGAGCACACGU
B23: target 1 U19G,C22U (mixed)
RNA 1: CACCCGUGCAAAAAUGCAGGGGUCUAAAACUGAGCGGAUAACCUCUCUAUGG
RNA 2: GGGAAUGGAUCCACAUCUACGAAUUCGUAUCAGAGAGAGGUUAUCCGCUCACCGAGAUCGGAAGAGCACACGU
B24: target 1 insC 3' of 12,insU 3' of 12 (mixed)
RNA 1: CACCCGUGCAAAAAUGCAGGGGUCUAAAACUGAGCGGAUAACCUCUCUAUGG
RNA 2: GGGAAUGGAUCCACAUCUACGAAUUCGUACCAUAGAGAGGCUUUAUCCGCUCACCGAGAUCGGAAGAGCACACGU
B25: target 1 insC 3' of 5,insU 3' of 4 (mixed)
RNA 1: CACCCGUGCAAAAAUGCAGGGGUCUAAAACUGAGCGGAUAACCUCUCUAUGG
RNA 2: GGGAAUGGAUCCACAUCUACGAAUUCGUACCAUAGAGAGGUUAUCCGCCUUCACCGAGAUCGGAAGAGCACACGU
B26: target 1 insU 3' of 21,insC 3' of 18 (mixed)
RNA 1: CACCCGUGCAAAAAUGCAGGGGUCUAAAACUGAGCGGAUAACCUCUCUAUGG
RNA 2: GGGAAUGGAUCCACAUCUACGAAUUCGUACCUAUACGAGAGGUUAUCCGCUCACCGAGAUCGGAAGAGCACACGU
B27: target 1 C7A,G17A (mixed)
RNA 1: CACCCGUGCAAAAAUGCAGGGGUCUAAAACUGAGCGGAUAACCUCUCUAUGG
RNA 2: GGGAAUGGAUCCACAUCUACGAAUUCGUACCAUAAAGAGGUUAUACGCUCACCGAGAUCGGAAGAGCACACGU

The data set concerns the target T1, EsCas13d, nuclease-dead. As to the kind of experiment: crRNA (strand 1, pre-loaded); Mg2+; 40 mM Tris-HCl pH 7.5, 150 mM NaCl, 6 mM MgCl2, 1 mM DTT, 0.1% Tween-20, 0.2 mg/ml BSA; 25 C; 10 min per concentration, then washed. Particulars: tags: His6-TwinStrep-SUMO cleaved; N-terminal SNAP kept (SNAP-Surface 488); label: 3' end held by stalled T7 RNA polymerase.
B1 came in with a dissociation constant (Kd) of 11.3 ± 0.4 nM.
With B2 the figure was 9 ± 1 nM.
B3 returned a Kd of around 70 nM.
To B4 belongs 33.2 ± 2.9 nM.
In turn, B5 had an equilibrium dissociation constant (Kd) of 47.2 ± 3.4 nM.
With B6 the figure was 29.6 ± 2.6 nM.
For B7, the Kd is 54 ± 12 nM.
B8: the dissociation constant (Kd) was 18.6 ± 1.1 nM.
With B9 the figure was 68 ± 15 nM.
With B10 the figure was 23 ± 4 nM; with B11, 5.2 ± 0.4 nM; with B12, 92 ± 24 nM.
Consider B13, for which binding was put at a Kd of 10 ± 0.7 nM.
With B14 the figure was 27.4 ± 2 nM.
The molecule B15 registered a Kd of 16.2 ± 0.6 nM.
As to B16, the Kd came to 65 ± 18 nM.
Molecule B17 yielded a Kd of 58 ± 6 nM.
To B18 belongs 42 ± 7 nM; to B19, 8.1 ± 0.4 nM.
To B20 belongs 9.7 ± 0.4 nM.
In the case of B21, binding was characterised by a dissociation constant (Kd) of 56 ± 13 nM.
For the molecule B22, the affinity, expressed as Kd, was 68 ± 12 nM.
With B23 the figure was 74 ± 16 nM.
With B24 the figure was 10.2 ± 0.8 nM; with B25, 15.7 ± 1.3 nM.
For B26, the affinity, expressed as Kd, was 52 ± 6 nM.
With B27 the figure was 51 ± 5 nM.

The Kd is the free concentration of one partner at which half of the binding sites on the other are occupied at equilibrium, for simple one-to-one binding. Higher therefore signals lower affinity.

These data come from PMC10786891, “Massively parallel profiling of RNA-targeting CRISPR-Cas13d”.
